Test results reported in the supplement of paper PMC5998384.

Key:
HeLa Kyoto [1] = test: melting temperature (median over replicates), in situ; higher = more thermally stable
HeLa Kyoto [2] = test: solubility change mitosis vs G1/S (difference of NP-40 vs SDS log2 ratios) (log2 ratio difference); higher = more soluble in mitosis
HeLa Kyoto [3] = test: solubility in G1/S (NP-40 vs SDS abundance) (log2 ratio); higher = more soluble; conditions: cell cycle stage: G1/S
HeLa Kyoto [4] = test: thermal stability score vs G1/S (z-score of summed log2 fold changes over temperatures); higher = more thermally stable than in G1/S
[5] = cell cycle stage: early G1 (4.5 h after nocodazole release)
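For melting temperature (median over replicates), in situ in this document: HeLa Kyoto cells synchronized by double thymidine or nocodazole block, proteins quantified by TMT10plex mass spectrometry, three independent biological replicates.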
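For solubility change mitosis vs G1/S (difference of NP-40 vs SDS log2 ratios) in this document: synchronized HeLa Kyoto cells (double thymidine block for G1/S, nocodazole release for mitosis), protein amounts in NP-40 versus SDS lysates quantified by mass spectrometry, three biological replicates.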
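For solubility in G1/S (NP-40 vs SDS abundance) in this document: HeLa Kyoto cells arrested at G1/S by double thymidine block, proteins quantified by TMT10plex mass spectrometry in mild NP-40 versus SDS extracts, three biological replicates.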
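For thermal stability score vs G1/S (z-score of summed log2 fold changes over temperatures) in this document: synchronized HeLa Kyoto cells, proteins quantified by TMT10plex mass spectrometry, three biological replicates, mitosis taken 0.5 h after nocodazole release, G1/S directly after double thymidine block.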

Row | Sequence | melting temperature (HeLa Kyoto [1]; cell cycle stage: G1/S) [°C] | melting temperature (HeLa Kyoto [1]; cell cycle stage: mitosis) [°C] | solubility change mitosis (log2) (HeLa Kyoto [2]) | solubility in G1/S (log2) (HeLa Kyoto [3]) | thermal stability score (HeLa Kyoto [4]; [5]) | thermal stability score (HeLa Kyoto [4]; cell cycle stage: mitosis)
1 | MVEEVQKHSVHTLVFRSLKRTHDMFVADNGKPVPLDEESHKRKMAIKLRNEYGPVLHMPTSKENLKEKGPQNATDSYVHKQYPANQGQEVEYFVAGTHPYPPGPGVALTADTKIQRMPSESAAQSLAVALPLQTKADANRTAPSGSEYRHPGASDRPQPTAMNSIVMETGNTKNSALMAKKAPTMPKPQWHPPWKLYRVISGHLGWVRCIAVEPGNQWFVTGSADRTIKIWDLASGKLKLSLTGHISTVRGVIVSTRSPYLFSCGEDKQVKCWDLEYNKVIRHYHGHLSAVYGLDLHPTIDVLVTCSRDSTARIWDVRTKASVHTLSGHTNAVATVRCQAAEPQIITGSHDTTIRLWDLVAGKTRVTLTNHKKSVRAVVLHPRHYTFASGSPDNIKQWKFPDGSFIQNLSGHNAIINTLTVNSDGVLVSGADNGTMHLWDWRTGYNFQRVHAAVQPGSLDSESGIFACAFDQSESRLLTAEADKTIKVYREDDTATEETHPVSWKPEIIKRKRF [PLRG1] | 50.6 | 50.6 | 0.247 | -0.776 | -0.0826 | -5.45
2 | MVEKEEAGGGISEEEAAQYDRQIRLWGLEAQKRLRASRVLLVGLKGLGAEIAKNLILAGVKGLTMLDHEQVTPEDPGAQFLIRTGSVGRNRAEASLERAQNLNPMVDVKVDTEDIEKKPESFFTQFDAVCLTCCSRDVIVKVDQICHKNSIKFFTGDVFGYHGYTFANLGEHEFVEEKTKVAKVSQGVEDGPDTKRAKLDSSETTMVKKKVVFCPVKEALEVDWSSEKAKAALKRTTSDYFLLQVLLKFRTDKGRDPSSDTYEEDSELLLQIRNDVLDSLGISPDLLPEDFVRYCFSEMAPVCAVVGGILAQEIVKALSQRDPPHNNFFFFDGMKGNGIVECLGPK [SAE1] | 52.4 | 52.3 | -0.153 | 0.0883 | 0.0359 | 0.096
3 | MVGEEKMSLRNRLSKSRENPEEDEDQRNPAKESLETPSNGRIDIKQLIAKKIKLTAEAEELKPFFMKEVGSHFDDFVTNLIEKSASLDNGGCALTTFSVLEGEKNNHRAKDLRAPPEQGKIFIARRSLLDELLEVDHIRTIYHMFIALLILFILSTLVVDYIDEGRLVLEFSLLSYAFGKFPTVVWTWWIMFLSTFSVPYFLFQHWATGYSKSSHPLIRSLFHGFLFMIFQIGVLGFGPTYVVLAYTLPPASRFIIIFEQIRFVMKAHSFVRENVPRVLNSAKEKSSTVPIPTVNQYLYFLFAPTLIYRDSYPRNPTVRWGYVAMKFAQVFGCFFYVYYIFERLCAPLFRNIKQEPFSARVLVLCVFNSILPGVLILFLTFFAFLHCWLNAFAEMLRFGDRMFYKDWWNSTSYSNYYRTWNVVVHDWLYYYAYKDFLWFFSKRFKSAAMLAVFAVSAVVHEYALAVCLSFFYPVLFVLFMFFGMAFNFIVNDSRKKPIWNVLMWTSLFLGNGVLLCFYSQEWYARQHCPLKNPTFLDYVRPRSWTCRYVF [SOAT1] | 52.2 | 52 | -0.0778 | -0.292 | 0.192 | 0.0734
4 | MVGRNSAIAAGVCGALFIGYCIYFDRKRRSDPNFKNRLRERRKKQKLAKERAGLSKLPDLKDAEAVQKFFLEEIQLGEELLAQGEYEKGVDHLTNAIAVCGQPQQLLQVLQQTLPPPVFQMLLTKLPTISQRIVSAQSLAEDDVE [TOMM20] | 49.7 | 51.7 | 0.294 | 0.747 | -2.96 | -4.96
5 | MVGSLNCIVAVSQNMGIGKNGDLPWPPLRNEFRYFQRMTTTSSVEGKQNLVIMGKKTWFSIPEKNRPLKGRINLVLSRELKEPPQGAHFLSRSLDDALKLTEQPELANKVDMVWIVGGSSVYKEAMNHPGHLKLFVTRIMQDFESDTFFPEIDLEKYKLLPEYPGVLSDVQEEKGIKYKFEVYEKND [DHFR] | 47.9 | 49.1 | -0.139 | 0.294 | 1.37 | 2.73
6 | MVHCSCVLFRKYGNFIDKLRLFTRGGSGGMGYPRLGGEGGKGGDVWVVAQNRMTLKQLKDRYPRKRFVAGVGANSKISALKGSKGKDCEIPVPVGISVTDENGKIIGELNKENDRILVAQGGLGGKLLTNFLPLKGQKRIIHLDLKLIADVGLVGFPNAGKSSLLSCVSHAKPAIADYAFTTLKPELGKIMYSDFKQISVADLPGLIEGAHMNKGMGHKFLKHIERTRQLLFVVDISGFQLSSHTQYRTAFETIILLTKELELYKEELQTKPALLAVNKMDLPDAQDKFHELMSQLQNPKDFLHLFEKNMIPERTVEFQHIIPISAVTGEGIEELKNCIRKSLDEQANQENDALHKKQLLNLWISDTMSSTEPPSKHAVTTSKMDII [GTPBP10] | 49.4 | 50.8 | 0.0276 | 0.217 | -0.944 | 0.176
7 | MVIRVYIASSSGSTAIKKKQQDVLGFLEANKIGFEEKDIAANEENRKWMRENVPENSRPATGYPLPPQIFNESQYRGDYDAFFEARENNAVYAFLGLTAPPGSKEAEVQAKQQA [SH3BGRL] | 53.2 | 53 | -0.0943 | 0.375 | -0.605 | -2.76
8 | MVKLAAKCILAGDPAVGKTALAQIFRSDGAHFQKSYTLTTGMDLVVKTVPVPDTGDSVELFIFDSAGKELFSEMLDKLWESPNVLCLVYDVTNEESFNNCSKWLEKARSQAPGISLPGVLVGNKTDLAGRRAVDSAEARAWALGQGLECFETSVKEMENFEAPFHCLAKQFHQLYREKVEVFRALA [IFT27] | 52.3 | 53.7 | -0.134 | 0.371 | -0.15 | -0.857
9 | MVKLFIGNLPREATEQEIRSLFEQYGKVLECDIIKNYGFVHIEDKTAAEDAIRNLHHYKLHGVNINVEASKNKSKTSTKLHVGNISPTCTNKELRAKFEEYGPVIECDIVKDYAFVHMERAEDAVEAIRGLDNTEFQGKRMHVQLSTSRLRTAPGMGDQSGCYRCGKEGHWSKECPIDRSGRVADLTEQYNEQYGAVRTPYTMSYGDSLYYNNAYGALDAYYKRCRAARSYEAVAAAAASVYNYAEQTLSQLPQVQNTAMASHLTSTSLDPYDRHLLPTSGAAATAAAAAAAAAAVTAASTSYYGRDRSPLRRATAPVPTVGEGYGYGHESELSQASAAARNSLYDMARYEREQYADRARYSAF [RBM4] | 49.6 | 48 | -0.0121 | 0.281 | -0.245 | -0.114
10 | MVLSELAARLNCAEYKNWVKAGHCLLLLRSCLQGFVGREVLSFHRGLLAAAPGLGPRAVCRGGSRCSPRARQFQPQCQVCAEWKREILRHHVNRNGDVHWGNCRPGRWPVDAWEVAKAFMPRGLADKQGPEECDAVALLSLINSCDHFVVDRKKVTEVIKCRNEIMHSSEMKVSSTWLRDFQMKIQNFLNEFKNIPEIVAVYSRIEQLLTSDWAVHIPEEDQRDGCECEMGTYLSESQVNEIEMQLLKEKLQEIYLQAEEQEVLPEELSNRLEVVKEFLRNNEDLRNGLTEDMQKLDSLCLHQKLDSQEPGRQTPDRKA [CXORF38] | 52.5 | 52.1 | -0.0263 | 0.0857 | -0.304 | 2.18
11 | MVLSQRQRDELNRAIADYLRSNGYEEAYSVFKKEAELDVNEELDKKYAGLLEKKWTSVIRLQKKVMELESKLNEAKEEFTSGGPLGQKRDPKEWIPRPPEKYALSGHRSPVTRVIFHPVFSVMVSASEDATIKVWDYETGDFERTLKGHTDSVQDISFDHSGKLLASCSADMTIKLWDFQGFECIRTMHGHDHNVSSVAIMPNGDHIVSASRDKTIKMWEVQTGYCVKTFTGHREWVRMVRPNQDGTLIASCSNDQTVRVWVVATKECKAELREHEHVVECISWAPESSYSSISEATGSETKKSGKPGPFLLSGSRDKTIKMWDVSTGMCLMTLVGHDNWVRGVLFHSGGKFILSCADDKTLRVWDYKNKRCMKTLNAHEHFVTSLDFHKTAPYVVTGSVDQTVKVWECR [PAFAH1B1] | 55.8 | 55.5 | -0.149 | -0.211 | 1.3 | -0.762
12 | MVMEKPSPLLVGREFVRQYYTLLNKAPEYLHRFYGRNSSYVHGGVDASGKPQEAVYGQNDIHHKVLSLNFSECHTKIRHVDAHATLSDGVVVQVMGLLSNSGQPERKFMQTFVLAPEGSVPNKFYVHNDMFRYEDEVFGDSEPELDEESEDEVEEEQEERQPSPEPVQENANSGYYEAHPVTNGIEEPLEESSHEPEPEPESETKTEELKPQVEEKNLEELEEKSTTPPPAEPVSLPQEPPKAFSWASVTSKNLPPSGTVSSSGIPPHVKAPVSQPRVEAKPEVQSQPPRVREQRPRERPGFPPRGPRPGRGDMEQNDSDNRRIIRYPDSHQLFVGNLPHDIDENELKEFFMSFGNVVELRINTKGVGGKLPNFGFVVFDDSEPVQRILIAKPIMFRGEVRLNVEEKKTRAARERETRGGGDDRRDIRRNDRGPGGPRGIVGGGMMRDRDGRGPPPRGGMAQKLGSGRGTGQMEGRFTGQRR [G3BP2] | 51.7 | 50.4 | 0.158 | -0.124 | -0.995 | -2.86
13 | MVPGEENQLVPKEDVFWRCRQNIFDEMKKKFLQIENAAEEPRVLCIIQDTTNSKTVNERITLNLPASTPVRKLFEDVANKVGYINGTFDLVWGNGINTADMAPLDHTSDKSLLDANFEPGKKNFLHLTDKDGEQPQILLEDSSAGEDSVHDRFIGPLPREGSGGSTSDYVSQSYSYSSILNKSETGYVGLVNQAMTCYLNSLLQTLFMTPEFRNALYKWEFEESEEDPVTSIPYQLQRLFVLLQTSKKRAIETTDVTRSFGWDSSEAWQQHDVQELCRVMFDALEQKWKQTEQADLINELYQGKLKDYVRCLECGYEGWRIDTYLDIPLVIRPYGSSQAFASVEEALHAFIQPEILDGPNQYFCERCKKKCDARKGLRFLHFPYLLTLQLKRFDFDYTTMHRIKLNDRMTFPEELDMSTFIDVEDEKSPQTESCTDSGAENEGSCHSDQMSNDFSNDDGVDEGICLETNSGTEKISKSGLEKNSLIYELFSVMVHSGSAAGGHYYACIKSFSDEQWYSFNDQHVSRITQEDIKKTHGGSSGSRGYYSSAFASSTNAYMLIYRLKDPARNAKFLEVDEYPEHIKNLVQKERELEEQEKRQREIERNTCKIKLFCLHPTKQVMMENKLEVHKDKTLKEAVEMAYKMMDLEEVIPLDCCRLVKYDEFHDYLERSYEGEEDTPMGLLLGGVKSTYMFDLLLETRKPDQVFQSYKPGEVMVKVHVVDLKAESVAAPITVRAYLNQTVTEFKQLISKAIHLPAETMRIVLERCYNDLRLLSVSSKTLKAEGFFRSNKVFVESSETLDYQMAFADSHLWKLLDRHANTIRLFVLLPEQSPVSYSKRTAYQKAGGDSGNVDDDCERVKGPVGSLKSVEAILEESTEKLKSLSLQQQQDGDNGDSSKSTETSDFENIESPLNERDSSASVDNRELEQHIQTSDPENFQSEERSDSDVNNDRSTSSVDSDILSSSHSSDTLCNADNAQIPLANGLDSHSITSSRRTKANEGKKETWDTAEEDSGTDSEYDESGKSRGEMQYMYFKAEPYAADEGSGEGHKWLMVHVDKRITLAAFKQHLEPFVGVLSSHFKVFRVYASNQEFESVRLNETLSSFSDDNKITIRLGRALKKGEYRVKVYQLLVNEQEPCKFLLDAVFAKGMTVRQSKEELIPQLREQCGLELSIDRFRLRKKTWKNPGTVFLDYHIYEEDINISSNWEVFLEVLDGVEKMKSMSQLAVLSRRWKPSEMKLDPFQEVVLESSSVDELREKLSEISGIPLDDIEFAKGRGTFPCDISVLDIHQDLDWNPKVSTLNVWPLYICDDGAVIFYRDKTEELMELTDEQRNELMKKESSRLQKTGHRVTYSPRKEKALKIYLDGAPNKDLTQD [USP47] | 49.6 | 49.7 | -0.168 | -0.111 | 0.111 | 0.427
14 | MVQLRPRASRAPASAEAMVDEGQLASEEEEAEHGLLLGQPSSGAAAEPLEEDEEGDDEFDDEAPEELTFASAQAEAREEERRVRETVRRDKTLLKEKRKRREELFIEQKKRKLLPDTILEKLTTASQTNIKKSPGKVKEVNLQKKNEDCEKGNDSKKVKVQKVQSVSQNKSYLAVRLKDQDLRDSRQQAAQAFIHNSLYGPGTNRTTVNKFLSLANKRLPVKRAAVQFLNNAWGIQKKQNAKRFKRRWMVRKMKTKK [NOL7] | 56.9 | 54 | 0.763 | -1.02 | -0.722 | -4.23
